Data set [1] concerns the target mtp53 R273H (Homo sapiens, UniProt P04637, R273H). Briefly: Co-immunoprecipitation assay with purified mtp53 R273H. It is filed as binding. To be noted: anti-p53 antibody sample; molar ratio 1:1; not by normal IgG. The method, then: Anti-p53 DO1 antibody-coupled magnetic beads were used to pull down Cy5p53Tet/mtp53 complex, and normal mouse IgG-coupled magnetic beads were used as a control.
To experimentally determine if Cy5p53Tet binds to mtp53 R273H, a co-immunoprecipitation assay was performed using purified mtp53 mixed with Cy5p53Tet in a molar ratio of 1:1 (FIG. 3C). The co-immunoprecipitation was carried out using anti-p53 antibody or nonspecific IgG.
Co-immunoprecipitation Assay. Magnetic beads were used for co-immunoprecipitation assays, and 50 μL of the bead suspension was placed in each sample. The beads were washed twice with 1×PBS-0.1% Tween-20 by vortexing for 10 s. The beads were resuspended in 1×PBS-0.1% Tween-20 with either 1 μg of anti-p53 DO1 antibody or 1 μg of normal mouse IgG at a final volume of 100 μL. The tubes were incubated at room temperature for 10 min with continuous mixing. The beads were washed three times with 1×PBS-0.1% Tween-20, and 1 μg of purified mtp53 R273H and 100 ng of Cy5p53Tet peptide were incubated with the immobilized antibody at 4° C. for 150 min with constant rotation. Beads were pelleted and then washed with 1 mL 1×PBS-0.1% Tween-20 four times at room temperature. Bound proteins were eluted by incubating in 2×SDS Laemmli sample buffer containing 0.2 M DTT, heated at 95° C. for 10 min, and loaded on 15 or 10% polyacrylamide gel.

For data set [2], the system named is WHIM6 and WHIM25 tumors. Briefly: Epifluorescence imaging (IVIS) of Cy5p53Tet uptake in bilateral PDX WHIM6/WHIM25 tumors. The format is in vivo, NSG mice. To be noted: 10 nmol tail vein.
Description: In vivo optical imaging of Cy5p53Tet peptide uptake in bilateral PDX WHIM6/WHIM25 xenograft models. 2 million WHIM6 cells and WHIM25 cells were injected subcutaneously on the left and right shoulders of each mouse. 10 nmol Cy5p53Tet peptide was intravenously injected to each mouse when tumor size reached to 100-200 mm^3. At 1 hr, 2 hr and 3 hr post Cy5p53Tet peptide injection, the tumors were removed and the epifluorescence images were taken using an IVIS Spectrum. […] Cy5p53Tet peptide epifluorescence intensity quantification in WHIM6 and WHIM25 tumors was analyzed.
First, WHIM6/WHIM25 bilateral PDX tumor-bearing NSG mice were tail vein injected with 10 nmol of Cy5p53Tet peptide to study its delivery efficacy (FIG. 5A). Then, the WHIM6 and WHIM25 tumors were removed at 1, 2, and 3 hr post-injection. Uptake of the Cy5p53Tet peptide in WHIM6 and WHIM25 tumors was assessed on an in vivo epifluorecent imaging system (IVIS). […] The Cy5p53Tet peptide signal was investigated in PDX tumor tissue by extracting proteins from the WHIM6 and WHIM25 tumors post-injection with the Cy5p53Tet peptide at 1 hr, 2 hr, and 3 hr, and the Cy5p53Tet peptide effects were characterized in PDX models (FIG. 5B). Samples were run on 12% polyacrylamide gel and the Cy5p53Tet peptide accumulated in tumors was scanned at Cy5 channel and quantified. […]
Data set [3] relates to MDA-MB-468 cells. The conditions noted are these: 500 nM, 24 h; mtp53 R273H. Here is the method: (§1) Three independent experiments with biological replicates were performed for all ±SEM *p-value ≤0.05, **p-value ≤0.01, ***p-value ≤0.001.
(§2) Toxicity to normal cells and tissues represents an important barrier for drug delivery, and an advantage of cell penetrating peptide-based therapies is their low toxicity compared to most drug carriers. To evaluate the toxicity of Cy5p53Tet to breast cancer cells and normal breast mammary epithelial cells, the viability of cells was evaluated following peptide treatment (FIG. 1G).
(§3) Peptidecytotoxicity Assay. A total of 1.25×10^5 cells were seeded in a 12-well plate the day before and grown at 37° C. Cells were treated with 500 nM Cy5p53Tet for 24 h, and 0.1 mL MTT solution [5 mg mL^−1 (3-(4, 5-dimethylthiazolyl-2)-2, 5-diphenyltetrazolium bromide] was added to the cells and incubated at 37° C. for 1 h. The cells were then resuspended in 0.04 N hydrochloric acid diluted in isopropanol and incubated in the dark on a shaker for 5 min at room temperature. The absorbance was quantified at 550 nm, and the background absorbance was subtracted at 620 nm.

Data set [4] has as its system HCC70. The conditions noted are these: 500 nM, 24 h; mtp53 R248Q. The method, then:
as §1, §2, §3

Data set [5] concerns MDA-MB-468 cells compared to MCF7 cells. To be noted: 2 h. Here is the method: FlowJo software was used to analyze the cytometric data.
The cellular uptake of Cy5p53Tet in these two cell lines was also measured using flow cytometry.
In Vitro Cy5p53Tet Cellular Uptake by Flow Cytometry. Fluorescence-activated cell-sorting (FACS) was used to determine the cellular uptake of Cy5p53Tet. MCF7 and MDA-MB-468 cells were seeded in six-well plates at a density of 5×10^5 cells/well and incubated at 37° C. overnight. On the following day, media were replaced with fresh media containing vehicle control or 100 or 500 nM Cy5p53Tet and further incubated at 37° C. for 2 h. Cells were washed two times with PBS and trypsinized at 37° C. for 5 min. Trypsin was neutralized by adding media, and the cell suspension was spun down. Cell pellets were washed with PBS and resuspended in PBS. FACS was performed on a FACScan (BD Biosciences), processing 2×10^4 events for each sample.

The values that follow come from patent US20210353784A1, “DETECTING AND TREATING CANCERS USING CELL PENETRANT MTP53-OLIGOMERIZATION-DOMAIN PEPTIDE” (priority 2020, published 2021).

Where two headings read alike, the source gives them in different places.

Take “H-CysCy5-RKKRRQRRGEYFTLQIRGRERFEMFRELNEALELK-OH (N-terminal Cy5; Synthetic peptide based on p53 protein) [Cy5p53Tet]”: the “pull-down of Cy5p53Tet with mtp53 R273H” value in data set [1] is recorded as “significantly pulled down”. The “Cy5 fluorescence signal in the tumor site of WHIM6 compared to WHIM25” value in data set [2] is recorded as “higher”. Further, the “mitochondrial activity reduced by” value in data set [3] amounted to 10.6%; in data set [4], 13.6%. For the same substance, the “geometric MFI, mtp53-expressing MDA-MB-468 cells vs MCF7 cells” value in data set [5] (100 nM) amounted to 1.58 fold; in data set [5] (500 nM), 1.65 fold.
